# From patent US20070265189A1 (published 2007)
# Target: T1, Soluble IGF-1R (sIGF-1R), R&D Systems Cat. # 391-GR/CF (UniProt P08069 31-935, limits assumed)
# T1 construct: extracellular domain
# Test: phage ELISA
Binder,IGF-1R/IR comparison,Ratio over Background
LSSDGQFYRALNLLLQGSAGR [20E2B-2-B7-IGFR],6.7,6.1
AQPCGGFYGLLEQLVGRSVCD [20E2B-4-F10-IGFR],7.8,17.3
RFDPFYSYFVNLLGASA [NNRPγ-4-A7-IR],4.9,6.3
RQGTGSFYLMLEQLLVGARGP [20E2B-4-G11-IGFR],7,4.5
GCVVEWQKWHGASDPFYHKLSELGGCS [B6Hα-3-F10-IR],4.6,8.8
AVRATRFDEAFYDWFVRQISDGQGNK [H2CA-4-F6-IGFR],6.4,7.3
PGTDLGFYQALRCVVIQGACD [20E2B-2-B2-IGFR],8.1,4.9
LSVALSFYDALGQLVAGEGRW [20E2A-3-A12-IGFR],3.9,4.3
RFSTDGFYQYLLALVGGGPVG [20E2B-1-A11-IGFR],9.7,9.5
QFYGCLLDLSLGVPSFGWRRRCITA [20C-3-A4-IGFR],7.6,8.8
PAGPCGFYCGLGLLLHGDQSP [20E2B-4-H8-IGFR],5.9,5.3
NSRDGGFYLQLERLLGFPVTG [20E2B-3-D4-IGFR],9.6,7.9
LGVTDGFYAALGYLIHGVGQF [20E2B-3-D11-IGFR],7.6,12.2
MMVVDGFYDALHQLVVAQSLG [20E2A-3-D10-IGFR],3.9,6.9
GGTKAVAKVGTRDDPFYHKLSELLQGS [B6Hα-4-G8-IR],3.6,6.1
ASSASGFYELLQRLAGLGLEV [20E2B-3-C4-IGFR],6.2,20.4
AETSVQVGWIRLQSVWPGEHWNTVDPFYHKLSELLRGSGA [B6L-4-D7-IR],3.4,4.8
SAAQLFFQESFYDWFLRQVAESSQPN [H2CA-4-F11-IGFR],6.7,6.8
GCEVIVEEGDSADPFYHKLSELCQGS [B6Hα-2-D1-IR],4.2,5.4
SACQFDCHENFYDWFARQVSGGAAYG [H2CA-4-H8-IGFR],9.4,9.2

Binder,IGF-1R/IR comparison,Ratio over Background
TLRSPTFYDWLEMVLTHGQGG [20E2B-1-A8-IGFR],5,4.4
ICTGQGFYQVLCGLLRGTSAR [20E2B-2-B3-IGFR],7.4,5.3
FFYRCLSRLLGGQLGSRLGLSCIGD [20C-3-E4-IGFR],6,7.7
GCAVVEEAERSRGDPFYHKLSELIQGC [B6Hα-3-E7-IR],4.3,5.6
VATSQGFYSGLSELLQGGGNV [20E2B-3-E12-IGFR],7.3,6
DSVGDNFYQLLESLVGGHGVG [20E2B-3-D6-IGFR],6.9,17.8
QGNVLDFYGWIGRLLAKQGSD [20E2B-3-D12-IGFR],7.3,6.2
RGIVAMVEATEVGSDHDPFYHKLSELVQGS [B6Hα-2-C7-IR],6.7,6.7
RCQGTGFYTCIQELIGFGDPD [20E2B-4-H9-IGFR],5.6,5.2
IIGGFYSYFNSVLRLGT [NNRPγ-4-A1-IR],6,10.9
GRTMAVMAAGGPDDPFYHKLSELVQGG [B6Hα-2-D6-IR],4.4,4.4
QPAPDGFYSALMKLIGRGGVS [20E2B-3-C8-IGFR],8.9,15.6
EGSGFYGYFFSLLGLQG [NNRPγ-4-A9-IR],7.1,10
IWATGDFYRLLSQLVMGRVGT [20E2B-2-B8-IGFR],7.2,5.7
SGAKVIVVTGDSGDPFYHKLSELLQGS [B6Hα-2-C10-IR],5.3,5.8
VGTVAGFYDAIAQLVARASRV [20E2A-3-C7-IGFR],5.1,5.4
QPDHSYFYSLLQELVGSEERL [20E2B-4-F9-IGFR],7.7,14.7
RGKTAAVIVGRPADPFYHKLSELLQGG [B6Hα-3-E8-IR],4.8,5.3
VNQSGSIHENFYDWFERQVSHQRGVR [H2CA-4-F10-IGFR],5.9,5.7

# Target: T2, soluble human insulin receptor-immunoglobulin heavy chain chimera (sIR-Fc; Bass et al., 1996) (human, UniProt P06213 28-956, limits assumed)
# T2 construct: extracellular domain; also called soluble IR (Bass construct); not shown: immunoglobulin heavy chain constant domains
# Test: phage ELISA
Binder,IR/IGF-1R comparison,Ratio over Background
LSSDGQFYRALNLLLQGSAGR [20E2B-2-B7-IGFR],0.1,0.9
AQPCGGFYGLLEQLVGRSVCD [20E2B-4-F10-IGFR],0.1,2.2
RFDPFYSYFVNLLGASA [NNRPγ-4-A7-IR],0.2,1.3
RQGTGSFYLMLEQLLVGARGP [20E2B-4-G11-IGFR],0.1,0.6
GCVVEWQKWHGASDPFYHKLSELGGCS [B6Hα-3-F10-IR],0.2,1.9
AVRATRFDEAFYDWFVRQISDGQGNK [H2CA-4-F6-IGFR],0.2,1.1
PGTDLGFYQALRCVVIQGACD [20E2B-2-B2-IGFR],0.1,0.6
LSVALSFYDALGQLVAGEGRW [20E2A-3-A12-IGFR],0.3,1.1
RFSTDGFYQYLLALVGGGPVG [20E2B-1-A11-IGFR],0.1,1
QFYGCLLDLSLGVPSFGWRRRCITA [20C-3-A4-IGFR],0.1,1.2
PAGPCGFYCGLGLLLHGDQSP [20E2B-4-H8-IGFR],0.2,0.9
NSRDGGFYLQLERLLGFPVTG [20E2B-3-D4-IGFR],0.1,0.8
LGVTDGFYAALGYLIHGVGQF [20E2B-3-D11-IGFR],0.1,1.6
MMVVDGFYDALHQLVVAQSLG [20E2A-3-D10-IGFR],0.3,1.8
GGTKAVAKVGTRDDPFYHKLSELLQGS [B6Hα-4-G8-IR],0.3,1.7
ASSASGFYELLQRLAGLGLEV [20E2B-3-C4-IGFR],0.2,3.3
AETSVQVGWIRLQSVWPGEHWNTVDPFYHKLSELLRGSGA [B6L-4-D7-IR],0.3,1.4
SAAQLFFQESFYDWFLRQVAESSQPN [H2CA-4-F11-IGFR],0.1,1
GCEVIVEEGDSADPFYHKLSELCQGS [B6Hα-2-D1-IR],0.2,1.3
SACQFDCHENFYDWFARQVSGGAAYG [H2CA-4-H8-IGFR],0.1,1

Binder,IR/IGF-1R comparison,Ratio over Background
TLRSPTFYDWLEMVLTHGQGG [20E2B-1-A8-IGFR],0.2,0.9
ICTGQGFYQVLCGLLRGTSAR [20E2B-2-B3-IGFR],0.1,0.7
FFYRCLSRLLGGQLGSRLGLSCIGD [20C-3-E4-IGFR],0.2,1.3
GCAVVEEAERSRGDPFYHKLSELIQGC [B6Hα-3-E7-IR],0.2,1.3
VATSQGFYSGLSELLQGGGNV [20E2B-3-E12-IGFR],0.1,0.8
DSVGDNFYQLLESLVGGHGVG [20E2B-3-D6-IGFR],0.1,2.6
QGNVLDFYGWIGRLLAKQGSD [20E2B-3-D12-IGFR],0.1,0.9
RGIVAMVEATEVGSDHDPFYHKLSELVQGS [B6Hα-2-C7-IR],0.1,1
RCQGTGFYTCIQELIGFGDPD [20E2B-4-H9-IGFR],0.2,0.9
IIGGFYSYFNSVLRLGT [NNRPγ-4-A1-IR],0.2,1.8
GRTMAVMAAGGPDDPFYHKLSELVQGG [B6Hα-2-D6-IR],0.2,1
QPAPDGFYSALMKLIGRGGVS [20E2B-3-C8-IGFR],0.1,1.8
EGSGFYGYFFSLLGLQG [NNRPγ-4-A9-IR],0.1,1.4
IWATGDFYRLLSQLVMGRVGT [20E2B-2-B8-IGFR],0.1,0.8
SGAKVIVVTGDSGDPFYHKLSELLQGS [B6Hα-2-C10-IR],0.2,1.1
VGTVAGFYDAIAQLVARASRV [20E2A-3-C7-IGFR],0.2,1.1
QPDHSYFYSLLQELVGSEERL [20E2B-4-F9-IGFR],0.1,1.9
RGKTAAVIVGRPADPFYHKLSELLQGG [B6Hα-3-E8-IR],0.2,1.1
VNQSGSIHENFYDWFERQVSHQRGVR [H2CA-4-F10-IGFR],0.2,1
